Consider 72 sequences from the supplement of paper PMC10567573.

This data set in a line: protein stability index of a GFP-peptide fusion (GPS, HEK-293T) (PSI 1-6); higher = more stable.
The mark [1] stands for this setting: treatment: DMSO, c terminus: a fixed tail appended.
The mark [2] stands for this setting: treatment: MLN4924 1 uM, 8 h, c terminus: a fixed tail appended.
Where [3] appears, read: treatment: DMSO, c terminus: native.
The mark [4] stands for this setting: treatment: MLN4924 1 uM, 8 h, c terminus: native.

± gives the standard deviation.
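Further: 24-mer peptide tiles fused after GFP, lentivirally expressed, FACS-sorted into six equal bins by GFP/DsRed ratio, decoded by Illumina sequencing, PSI is the read-weighted mean bin number.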

For SWACAFTNALTHTVAMSTLNFCGP [OR3A1], the protein stability index by setting is: under setting [1], 3.47 ± 0.13; under setting [2], 3.15 ± 0.049.

With SWRVGVVRVRQDSGAEGHSHSCYH [TRIM35], the protein stability index by setting is: under setting [1], 3.02 ± 0.41; under setting [2], 3.2 ± 0.32.

Turning to SWSQYEMPEFSSDSTMRILSNLVQ [RTP4], the protein stability index amounted to 2.48 ± 0.24 under setting [1] and 2.59 ± 0.3 under setting [2].

In the case of SWVDDTPFNKVQSARFWIPGEPNN [CD207], the protein stability index reads like this: under setting [1], 2.44 ± 0.15; under setting [2], 2.51 ± 0.45.

Take SYFDMLYPEDSSWAAKAPGASSRE [SPDEF]: the protein stability index reads like this: under setting [1], 3.56 ± 0.13; under setting [2], 3.52 ± 0.22.

Take SYPNPNEDKCPGNYTNPLKVQTVI [TMEM192]: the protein stability index stood at 3.17 ± 0.36 under setting [1] and 3.29 ± 0.22 under setting [2].

As for TAGLLREQVAQLKQKVMTHVSNGC [JUNB], the protein stability index runs as follows: under setting [1], 3.25 ± 0.2; under setting [2], 3.25 ± 0.32.

Consider TAKDFIVGKSLTILGRTFFIYDCD [EFHC1], for which the protein stability index by setting is: under setting [1], 2.93 ± 0.49; under setting [2], 2.28 ± 0.34.

For TALGGQCVDRQEVAEITKQLPPVV [TCAP], the protein stability index was determined as 4.07 ± 0.25 under setting [1] and 4.27 ± 0.13 under setting [2].

In turn, TAPLPMPEGPEPAAPGKQPGRGHT [ELOA2] had a protein stability index under setting [1] of 5.53 ± 0.15 and a protein stability index under setting [2] of 5.27 ± 0.2.

Regarding TDDSYSCHCLKGFTLNPDKKTCRR [MATN2], the protein stability index worked out at 3.27 ± 0.78 under setting [1] and 4.03 ± 0.7 under setting [2].

Regarding TEATISIREDEVHRLGSPYGHCTA [SCNN1D], the protein stability index under setting [1] amounted to 3.93 ± 0.29 and the protein stability index under setting [2] stood at 3.88 ± 0.16.

For the sequence TEKSGKREFDVRQTPQVNINPFTP [WEE1], the protein stability index stood at 4.42 ± 0.25 under setting [1] and 4.25 ± 0.094 under setting [2].

With TESQLTPCIRNVTSPTRQHHVERE [BTBD10], the protein stability index runs as follows: under setting [1], 4.99 ± 0.16; under setting [2], 4.95 ± 0.17.

Consider TFASLETVGIYFGLVYRIHSVLQG [TMEM40], for which the protein stability index turned out to be 3.59 ± 0.44 under setting [1] and 3.24 ± 0.23 under setting [2].

In turn, TFIVSCKFSPDGKYVVSGFDVDHG [WDR88] came in with a protein stability index under setting [1] of 2.79 ± 0.39 and a protein stability index under setting [2] of 2.81 ± 0.53.

TFQEPLYPALRLWEGAISIPRLP [TRIM14]: the protein stability index is, setting by setting: under setting [3], 2.65 ± 0.62; under setting [4], 2.67 ± 0.66.

For the sequence TFRQYCGAACTCHVRNPLSACSIM [RNF208], the protein stability index came out at 2.21 ± 0.4 under setting [1] and 2.2 ± 0.27 under setting [2].

As to TGTSNTTAIKSIEFARKGSCFLIN [RBBP5], the protein stability index by setting is: under setting [1], 2.42 ± 0.26; under setting [2], 2.42 ± 0.22.

In the case of THLENPTRYHLQQARRQQVKQYLS [TFE3], the protein stability index is, setting by setting: under setting [1], 3.38 ± 0.17; under setting [2], 3.64 ± 0.22.

Turning to TIAPTLIADLFVADQRSRMLSIFY [SPNS1], the protein stability index came out at 2.87 ± 0.66 under setting [1] and 2.66 ± 0.6 under setting [2].

For the sequence TIEELQQKILCSKSENARLVVQID [KRT33B], the protein stability index reads like this: under setting [1], 3.38 ± 0.19; under setting [2], 3.28 ± 0.53.

On to TIEGTSDDLTVVDAASLRRQIIKL [MFF], for which the protein stability index came out at 4 ± 0.34 under setting [1] and 4.08 ± 0.16 under setting [2].

TITEEIRDGKVISSREHVQSRPL [KRT36]: the protein stability index is, setting by setting: under setting [3], 5.23 ± 0.29; under setting [4], 5.26 ± 0.21.

In turn, TLASAGGPDNLVLLNPEKYKAKSR [ADD1] displayed a protein stability index under setting [1] of 4.22 ± 0.22 and a protein stability index under setting [2] of 4.31 ± 0.2.

In the case of TLEITLKDIVQTVRSRLEEAGIKV [TENT5C], the protein stability index runs as follows: under setting [1], 2.02 ± 0.35; under setting [2], 2.18 ± 0.35.

Sequence TLKQQHQQAVEQIAKAEETHSSLS [CCDC89] yielded a protein stability index under setting [1] of 5.07 ± 0.21 and a protein stability index under setting [2] of 5.09 ± 0.14.

Take TLRLEKLGHPALSQEEGKSALEDQ [PPFIA4]: the protein stability index by setting is: under setting [1], 5.38 ± 0.19; under setting [2], 5.14 ± 0.21.

As to TLVDEGDLYNWEVAIFGPPNTYYE [CDC34], the protein stability index reads like this: under setting [1], 2.33 ± 0.38; under setting [2], 2.8 ± 0.26.

For TMGLAGRARVKEKFSPEAFTEQLY [ALG2], the protein stability index reads like this: under setting [1], 2.94 ± 0.26; under setting [2], 2.96 ± 0.13.

For the sequence TMLTVIEQPVPPTPATPEDPAPLW [EMID1], the protein stability index reads like this: under setting [1], 3.76 ± 0.28; under setting [2], 3.77 ± 0.23.

As to TNNKVYAAKIIPHSRVAKPHQREK [PLK2], the protein stability index reads like this: under setting [1], 3.71 ± 0.2; under setting [2], 4.08 ± 0.57.

Regarding TPASQSPKKPPAKDPLADLNIKDF [SNAP91], the protein stability index is 5.06 ± 0.092 under setting [1] and 4.87 ± 0.25 under setting [2].

Consider TPKCSSPRGQEGSRQDKPLSPAGS [YJU2B], for which the protein stability index worked out at 5 ± 0.23 under setting [1] and 5.21 ± 0.23 under setting [2].

For the sequence TPYKPPAGRAAAPELSYRVCVGSD [MYORG], the protein stability index reads like this: under setting [1], 3.94 ± 0.24; under setting [2], 4.13 ± 0.27.

On to TQHHFAFQNAERAFKAAALIQRWY [PPEF2], for which the protein stability index is, setting by setting: under setting [1], 3.09 ± 0.14; under setting [2], 3.08 ± 0.18.

Regarding TQIKGLKNKPKKMGHIKPDLIDVD [PHTF1], the protein stability index runs as follows: under setting [1], 4.42 ± 0.16; under setting [2], 4.34 ± 0.26.

Regarding TQRQFTILNFNDLMSSAVPMTPED [AASDHPPT], the protein stability index worked out at 3.74 ± 0.14 under setting [1] and 3.38 ± 0.35 under setting [2].

TQRRTSMGGTQQQFVEGVRMEEIV [CTNNB1] showed a protein stability index under setting [1] of 4.05 ± 0.47 and a protein stability index under setting [2] of 4.26 ± 0.37.

Turning to TRRKKGKKDKDISKEKDTQNQNIT [KMT2E], the protein stability index amounted to 4.75 ± 0.12 under setting [1] and 5.07 ± 0.1 under setting [2].

Consider TSFPGRGSIPEFFHIMKRKFTNKE [AASDHPPT], for which the protein stability index reads like this: under setting [1], 3.179 ± 0.024; under setting [2], 3.21 ± 0.72.

Consider TSPLTAEKLCIYTDNSIKPQELLE [CCND2], for which the protein stability index worked out at 4.05 ± 0.23 under setting [1] and 4.08 ± 0.27 under setting [2].

Regarding TSSCPNVSERSFDNVRSLKVESGA [CRYBA1], the protein stability index reads like this: under setting [1], 5 ± 0.44; under setting [2], 4.63 ± 0.2.

Turning to TSSPAIWKFPVPVLKTSRSTPLSP [KLHL13], the protein stability index was 3.19 ± 0.21 under setting [1] and 3.32 ± 0.086 under setting [2].

As for TTYLKTIEVFDPDANTWRLYGGMN [KLHL20], the protein stability index amounted to 2.34 ± 0.23 under setting [1] and 2.26 ± 0.042 under setting [2].

Turning to TWTKHAEGGIFTSPNYPSKYPPDR [NETO1], the protein stability index reads like this: under setting [1], 3.94 ± 0.19; under setting [2], 3.85 ± 0.065.

In turn, TYKCTKQLLSERFGRGSRTVDLEL [ARFIP2] yielded a protein stability index under setting [1] of 2.43 ± 0.32 and a protein stability index under setting [2] of 2.33 ± 0.18.

Regarding TYMSADDLRINLWNFEITNQSFNI [PPP2R2B], the protein stability index by setting is: under setting [1], 2.43 ± 0.66; under setting [2], 2.53 ± 0.3.

As to VAERGTTQGCHPAWEPRSESQASR [ZNF8], the protein stability index was determined as 4.48 ± 0.22 under setting [1] and 4.6 ± 0.2 under setting [2].

As for VAPADVRRLLSYCKGRDHGVLDAL [ZSWIM9], the protein stability index under setting [1] was 2.46 ± 0.28 and the protein stability index under setting [2] worked out at 2.68 ± 0.46.

As to VAPATWSAGVPPSAPLQGAVPPTS [SNAP91], the protein stability index was 4.38 ± 0.25 under setting [1] and 4.39 ± 0.29 under setting [2].

For VAQGPFDSFVVQYEDTNGQPQALL [TNXB], the protein stability index by setting is: under setting [1], 3.43 ± 0.44; under setting [2], 3.16 ± 0.46.

As for VARCEVMAAMFNGNYMEAKSVLIP [RHOBTB3], the protein stability index was 2.16 ± 0.29 under setting [1] and 2.24 ± 0.17 under setting [2].

Take VDDFRLKYENELALRQSVEADING [KRT13]: the protein stability index runs as follows: under setting [1], 4.67 ± 0.15; under setting [2], 4.62 ± 0.2.

For the sequence VDFLEPDSGTCPEVDEEGFTVRPD [FCHO1], the protein stability index is 5.45 ± 0.086 under setting [1] and 5.43 ± 0.1 under setting [2].

In the case of VDIGMMKEFILTDEEVQRKREMIL [VDR], the protein stability index was 3.24 ± 0.19 under setting [1] and 3.24 ± 0.19 under setting [2].

For VEKNEHCIENNIDLQVNRNFSLAT [R3HDM1], the protein stability index runs as follows: under setting [1], 4 ± 0.23; under setting [2], 3.93 ± 0.31.

Regarding VELYRIKFKESFAEMNRGSNEWKT [COX4I1], the protein stability index is, setting by setting: under setting [1], 2.23 ± 0.29; under setting [2], 2.07 ± 0.45.

As for VERDNMEEDNVEESEEEGPWEPPV [HDAC6], the protein stability index by setting is: under setting [1], 5.58 ± 0.19; under setting [2], 5.25 ± 0.21.

Consider VFAPVYFPEELHRKAALEQDLAFW [HMOX1], for which the protein stability index is, setting by setting: under setting [1], 2.14 ± 0.43; under setting [2], 2.4 ± 0.38.

For the sequence VFEKAGVSISVVHGNLSEEAAKQM [CPOX], the protein stability index under setting [1] worked out at 3.72 ± 0.15 and the protein stability index under setting [2] amounted to 3.65 ± 0.4.

Consider VFIIRKSLLDELMEVQHFRTIYHM [SOAT2], for which the protein stability index was found to be 2.85 ± 0.61 under setting [1] and 2.58 ± 0.46 under setting [2].

Turning to VFLVDICLLTYGMTSSSAYYYTKV [PKD2L1], the protein stability index is, setting by setting: under setting [1], 2.98 ± 0.2; under setting [2], 2.84 ± 0.58.

VGCKGSKAGIEQEGYWLPGDEISI [ZMYND11]: the protein stability index reads like this: under setting [1], 3.18 ± 0.32; under setting [2], 3.13 ± 0.31.

Turning to VGFRLCNSTGGDCFYRGYTSGVAA [SCNN1D], the protein stability index under setting [1] came to 2.01 ± 0.58 and the protein stability index under setting [2] was 1.94 ± 0.54.

VGNYRLKEYEKALKYVRGLLQTEP [FIS1]: the protein stability index came to 2.19 ± 0.22 under setting [1] and 2.5 ± 0.32 under setting [2].

With VGSLPVIVVGRLKVALEPQLWELG [LPCAT4], the protein stability index under setting [1] was determined as 2.74 ± 0.036 and the protein stability index under setting [2] turned out to be 2.88 ± 0.6.

As for VGYGDMHPVTIGGKIVGSLCAIAG [KCNA3], the protein stability index runs as follows: under setting [1], 2.67 ± 0.11; under setting [2], 2.26 ± 0.35.

As to VHTGCHKKLGPEARRPRTRWGKN, the protein stability index was 2.8 ± 0.5 under setting [3] and 3.08 ± 0.69 under setting [4].

VIDAEPFIRCSLQCRDLVDEAKKF [KLHL12]: the protein stability index reads like this: under setting [1], 2.58 ± 0.46; under setting [2], 2.35 ± 0.065.

As to VILHLKEDQTEYLEERRVKEVVKK [HSP90AB1], the protein stability index under setting [1] stood at 2.57 ± 0.25 and the protein stability index under setting [2] was determined as 2.77 ± 0.36.

For the sequence VKTGEDGSNLDDAKGLAESLELPK [FANCE], the protein stability index runs as follows: under setting [1], 5.44 ± 0.18; under setting [2], 5.49 ± 0.14.
